Measurements published in patent US20070173444A1 (AFFYMAX, published 2007).
Square brackets hold non-standard residues; d marks the D form. Ends that are not written are not given here. Ahx = NCCCCCC(=O)O

T1: native IL-5R a/β complex on TF-1 cells (human, UniProt Q01344 21-420; P32927 17-897)
T1 sequence (looked up) 1: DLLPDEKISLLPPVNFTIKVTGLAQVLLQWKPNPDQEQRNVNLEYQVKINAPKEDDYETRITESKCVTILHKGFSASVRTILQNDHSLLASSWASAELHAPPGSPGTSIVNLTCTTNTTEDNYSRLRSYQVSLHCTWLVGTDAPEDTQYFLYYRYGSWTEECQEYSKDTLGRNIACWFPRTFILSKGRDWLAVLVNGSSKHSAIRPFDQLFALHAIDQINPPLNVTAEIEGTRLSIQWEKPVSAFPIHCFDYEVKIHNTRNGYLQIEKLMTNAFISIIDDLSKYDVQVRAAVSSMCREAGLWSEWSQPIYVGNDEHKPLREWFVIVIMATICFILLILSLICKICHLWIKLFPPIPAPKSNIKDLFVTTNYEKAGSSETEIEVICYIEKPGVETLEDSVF
T1 sequence (looked up) 2: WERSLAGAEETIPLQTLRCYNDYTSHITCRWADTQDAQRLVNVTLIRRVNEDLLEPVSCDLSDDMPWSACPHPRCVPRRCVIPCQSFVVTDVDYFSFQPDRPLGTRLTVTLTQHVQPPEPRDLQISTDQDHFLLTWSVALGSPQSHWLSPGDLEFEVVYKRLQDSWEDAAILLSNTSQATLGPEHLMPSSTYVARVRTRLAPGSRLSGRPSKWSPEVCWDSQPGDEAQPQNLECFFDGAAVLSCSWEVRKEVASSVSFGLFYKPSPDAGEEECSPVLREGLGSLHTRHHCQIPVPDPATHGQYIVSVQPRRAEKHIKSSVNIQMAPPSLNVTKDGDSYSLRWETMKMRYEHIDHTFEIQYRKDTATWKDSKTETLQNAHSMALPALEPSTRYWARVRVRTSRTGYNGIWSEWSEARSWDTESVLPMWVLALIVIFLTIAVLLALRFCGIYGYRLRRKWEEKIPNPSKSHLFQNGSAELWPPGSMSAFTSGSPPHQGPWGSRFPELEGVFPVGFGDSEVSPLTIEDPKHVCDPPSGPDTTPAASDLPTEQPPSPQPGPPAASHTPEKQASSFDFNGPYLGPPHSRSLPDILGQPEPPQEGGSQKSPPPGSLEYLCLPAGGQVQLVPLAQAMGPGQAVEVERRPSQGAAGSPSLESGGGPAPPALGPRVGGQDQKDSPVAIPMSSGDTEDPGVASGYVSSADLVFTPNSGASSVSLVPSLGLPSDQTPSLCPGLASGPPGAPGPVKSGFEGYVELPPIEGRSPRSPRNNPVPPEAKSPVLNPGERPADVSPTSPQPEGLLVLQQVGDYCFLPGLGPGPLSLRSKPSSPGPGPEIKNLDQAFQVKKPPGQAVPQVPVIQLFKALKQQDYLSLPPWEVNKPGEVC

T2: IL-5RaECD (the extracellular domain (ECD) of the human IL-5 receptor a chain) (human, UniProt Q01344 21-342, extensively glycosylated)
T2 construct: extracellular domain; also called IL-5RαECD; soluble IL-5Ra
T2 sequence (Q01344 21-342, looked up): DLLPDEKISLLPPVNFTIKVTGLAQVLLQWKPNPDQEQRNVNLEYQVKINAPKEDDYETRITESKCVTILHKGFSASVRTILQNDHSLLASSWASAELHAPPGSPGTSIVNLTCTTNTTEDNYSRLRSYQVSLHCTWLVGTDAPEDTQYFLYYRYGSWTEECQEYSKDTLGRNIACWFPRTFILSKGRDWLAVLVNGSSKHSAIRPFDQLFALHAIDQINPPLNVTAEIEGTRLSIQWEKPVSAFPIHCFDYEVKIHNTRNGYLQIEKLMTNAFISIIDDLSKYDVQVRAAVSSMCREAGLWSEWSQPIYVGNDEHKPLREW

B1: dimer of (Ac)-EGYVCVEWARCPTCK-(NH2) (peptide)
peptide: Ac-EGYVCVEWARCPTCK-NH2
modifications: disulfide (positions not given here); also: dimer, intramolecular and intermolecular disulfides, places not given here
B2: dimer of (Ac)-EGYVCVEWARCPTCR-(NH2) (peptide)
peptide: Ac-EGYVCVEWARCPTCR-NH2
modifications: disulfide (positions not given here); also: dimer, intramolecular and intermolecular disulfides, places not given here
B3: dimer of (Ac)-EGYVCVEWAACPTCR-(NH2) (peptide)
peptide: Ac-EGYVCVEWAACPTCR-NH2
modifications: disulfide (positions not given here); also: dimer, intramolecular and intermolecular disulfides, places not given here
B4: dimer of (H)-EGYVCVEWARCPTCK-(OH) (peptide)
peptide: H-EGYVCVEWARCPTCK-OH
modifications: disulfide (positions not given here); also: dimer, intramolecular and intermolecular disulfide linkages, places not given here
B5: dimer of (H)-EGYVCVEWARCPTCR-(OH) (peptide)
peptide: H-EGYVCVEWARCPTCR-OH
modifications: disulfide (positions not given here); also: dimer, intramolecular and intermolecular disulfide linkages, places not given here
B6: dimer of (Ahx)-EGYVCVEWARCPTCR-(NH2) (peptide)
peptide: [Ahx]EGYVCVEWARCPTCR-NH2
modifications: disulfide (positions not given here); also: dimer, intramolecular and intermolecular disulfides, places not given here
B7: dimer of (H)-EGYVCVEWARCPTCG-(NH2) (peptide)
peptide: H-EGYVCVEWARCPTCG-NH2
modifications: disulfide (positions not given here); also: dimer, intramolecular and intermolecular disulfide linkages, places not given here
B8: dimer of (H)-EGYVCVEFARCPTCR-(OH) (peptide)
peptide: H-EGYVCVEFARCPTCR-OH
modifications: disulfide (positions not given here); also: dimer, intramolecular and intermolecular disulfides, places not given here
B9: dimer of (H)-GYVCVEFARCPTCG-(NH2) (peptide)
peptide: H-GYVCVEFARCPTCG-NH2
modifications: disulfide (positions not given here); also: dimer, intramolecular and intermolecular disulfide linkages, places not given here
B10: dimer of (H)-EGYVCVEFARCPTCG-(NH2) (peptide)
peptide: H-EGYVCVEFARCPTCG-NH2
modifications: disulfide (positions not given here); also: dimer, intramolecular and intermolecular disulfides, places not given here
B11: dimer of (H)-EGYVCVEFARCPTCR-(NH2) (peptide)
peptide: H-EGYVCVEFARCPTCR-NH2
modifications: disulfide (positions not given here); also: dimer, intramolecular and intermolecular disulfides, places not given here

Biological target: T1, native IL-5R a/β complex on TF-1 cells
Assay: cell-based or functional assay

Microphysiometer pIC50 (block of TF-1 cell response to IL-5) | Binder
8.4 negative log of the molar IC50 | B1
9.1 negative log of the molar IC50 | B2
6.9 negative log of the molar IC50 | B3
9.2 negative log of the molar IC50 | B4
9.6 negative log of the molar IC50 | B5
9 negative log of the molar IC50 | B6
9.1 negative log of the molar IC50 | B7

Biological target: T2, IL-5RaECD (the extracellular domain …)
Assay: scintillation proximity competition assay, 20 pM [125I] IL-5, soluble IL-5Ra on beads; dimer of the printed monomer
Protocol: Binding affinities of synthetic peptides for IL-5Ra were measured in a scintillation proximity assay (SPA) using radio-iodinated IL-5. Streptavidin coated SPA beads (Amersham) were suspended in IL-5 binding buffer (phosphate buffered saline, 0.1% bovine serum albumin, 0.2% NaN3) at 2 mg beads/ml of buffer. Biotinylated mAb 179 was adsorbed onto the beads at a ratio of 2 ig Ab/mg beads by incubating the beads and antibody with agitation for at least 2 h. at 4. The beads were pelleted at 2500 rpm and resuspended at 2 mg/ml in binding buffer. Soluble IL-5Ra was then adsorbed onto the beads by diluting a solution of soluble receptor harvest 1:500 into the bead suspension and incubating with agitation for 2 hr at 4. The beads were again pelleted at 2500 rpm and resuspended at 2 mg/ml in binding buffer. Competition binding assays were carried out in 100p1 reactions in white polystyrene microtiter plates. These reactions contained 0.05 mg of receptor coated SPA beads, various concentrations of test peptide diluted in binding buffer, and 20 pM [₁₂₅I] IL-5 (Amersham). The plates were incubated at room temperature for 1 hour with agitation, then centrifuged for 5 min at 1500 rpm followed by scintillation counting on a Topcount instrument (Packard). Total binding was defined by the amount of [₁₂₅I] IL-5 bound in the absence of any competitor. Non-specific binding was defined by the amount of [₁₂₅I] IL-5 bound in the presence of 30 nM IL-5. Peptide binding data was analyzed to determine the peptide concentration required to reduce specific [₁₂₅I] IL-5 binding by 50% (IC₅₀). In each instance, the dimer has both intramolecular and intermolecular disulfide linkages as shown generically below: […]

SPA pIC50 | Binder
6.8 negative log of the molar IC50 | B8
6.1 negative log of the molar IC50 | B9
6.6 negative log of the molar IC50 | B10
8.7 negative log of the molar IC50 | B4
8.4 negative log of the molar IC50 | B5
6.4 negative log of the molar IC50 | B11
